Holding throughout (test): co-IP, anti-FLAG, lysate of cells with N-FLAG B3GNT2; mass spectrometry
Assay [1] deals with T1, HNRNPA2B1 (human, UniProt P22626-2 1-341).
T1 construct: also called NP_002128.1 (+1)

Assay [2] concerns the target T2, ATXN2 (human, UniProt Q99700 1-1313).
T2 construct: also called NP_002964.3

Assay [3] has as its target T3, PUM1 (human, UniProt Q14671-3 2-1188, limits assumed).
T3 construct: also called NP_00108494.1 (+1)
T3 sequence (looked up): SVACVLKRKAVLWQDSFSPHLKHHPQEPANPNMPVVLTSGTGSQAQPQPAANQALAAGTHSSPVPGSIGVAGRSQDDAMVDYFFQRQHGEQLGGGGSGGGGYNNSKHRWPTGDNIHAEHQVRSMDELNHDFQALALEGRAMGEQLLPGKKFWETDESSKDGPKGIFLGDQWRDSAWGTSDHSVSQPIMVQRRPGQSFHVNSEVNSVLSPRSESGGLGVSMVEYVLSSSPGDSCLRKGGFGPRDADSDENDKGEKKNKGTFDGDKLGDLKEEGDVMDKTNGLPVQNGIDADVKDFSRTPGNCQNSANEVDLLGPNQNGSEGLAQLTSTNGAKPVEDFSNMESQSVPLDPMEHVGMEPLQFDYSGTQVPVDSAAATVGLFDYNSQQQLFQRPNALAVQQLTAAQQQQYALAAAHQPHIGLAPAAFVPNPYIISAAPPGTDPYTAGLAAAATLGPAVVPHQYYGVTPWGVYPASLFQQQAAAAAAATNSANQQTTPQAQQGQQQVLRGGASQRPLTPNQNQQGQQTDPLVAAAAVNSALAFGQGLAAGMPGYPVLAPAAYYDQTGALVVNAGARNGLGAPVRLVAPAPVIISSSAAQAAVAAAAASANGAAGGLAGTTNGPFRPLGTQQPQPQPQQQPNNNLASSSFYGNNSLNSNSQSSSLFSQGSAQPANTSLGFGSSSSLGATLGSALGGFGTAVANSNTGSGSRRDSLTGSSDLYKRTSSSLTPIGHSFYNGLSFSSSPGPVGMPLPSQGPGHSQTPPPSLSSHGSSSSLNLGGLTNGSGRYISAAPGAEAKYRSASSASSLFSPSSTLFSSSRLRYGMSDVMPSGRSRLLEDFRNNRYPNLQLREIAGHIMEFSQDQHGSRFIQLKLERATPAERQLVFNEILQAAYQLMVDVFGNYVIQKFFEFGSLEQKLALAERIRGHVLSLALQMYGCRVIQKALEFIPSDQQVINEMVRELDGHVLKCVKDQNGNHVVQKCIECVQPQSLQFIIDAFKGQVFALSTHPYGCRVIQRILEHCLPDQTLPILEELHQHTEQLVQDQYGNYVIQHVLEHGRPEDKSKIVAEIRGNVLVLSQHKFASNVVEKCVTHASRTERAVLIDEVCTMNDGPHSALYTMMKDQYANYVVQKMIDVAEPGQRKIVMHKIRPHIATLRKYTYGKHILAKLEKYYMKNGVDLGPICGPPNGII

T2 sequence (Q99700 whole entry): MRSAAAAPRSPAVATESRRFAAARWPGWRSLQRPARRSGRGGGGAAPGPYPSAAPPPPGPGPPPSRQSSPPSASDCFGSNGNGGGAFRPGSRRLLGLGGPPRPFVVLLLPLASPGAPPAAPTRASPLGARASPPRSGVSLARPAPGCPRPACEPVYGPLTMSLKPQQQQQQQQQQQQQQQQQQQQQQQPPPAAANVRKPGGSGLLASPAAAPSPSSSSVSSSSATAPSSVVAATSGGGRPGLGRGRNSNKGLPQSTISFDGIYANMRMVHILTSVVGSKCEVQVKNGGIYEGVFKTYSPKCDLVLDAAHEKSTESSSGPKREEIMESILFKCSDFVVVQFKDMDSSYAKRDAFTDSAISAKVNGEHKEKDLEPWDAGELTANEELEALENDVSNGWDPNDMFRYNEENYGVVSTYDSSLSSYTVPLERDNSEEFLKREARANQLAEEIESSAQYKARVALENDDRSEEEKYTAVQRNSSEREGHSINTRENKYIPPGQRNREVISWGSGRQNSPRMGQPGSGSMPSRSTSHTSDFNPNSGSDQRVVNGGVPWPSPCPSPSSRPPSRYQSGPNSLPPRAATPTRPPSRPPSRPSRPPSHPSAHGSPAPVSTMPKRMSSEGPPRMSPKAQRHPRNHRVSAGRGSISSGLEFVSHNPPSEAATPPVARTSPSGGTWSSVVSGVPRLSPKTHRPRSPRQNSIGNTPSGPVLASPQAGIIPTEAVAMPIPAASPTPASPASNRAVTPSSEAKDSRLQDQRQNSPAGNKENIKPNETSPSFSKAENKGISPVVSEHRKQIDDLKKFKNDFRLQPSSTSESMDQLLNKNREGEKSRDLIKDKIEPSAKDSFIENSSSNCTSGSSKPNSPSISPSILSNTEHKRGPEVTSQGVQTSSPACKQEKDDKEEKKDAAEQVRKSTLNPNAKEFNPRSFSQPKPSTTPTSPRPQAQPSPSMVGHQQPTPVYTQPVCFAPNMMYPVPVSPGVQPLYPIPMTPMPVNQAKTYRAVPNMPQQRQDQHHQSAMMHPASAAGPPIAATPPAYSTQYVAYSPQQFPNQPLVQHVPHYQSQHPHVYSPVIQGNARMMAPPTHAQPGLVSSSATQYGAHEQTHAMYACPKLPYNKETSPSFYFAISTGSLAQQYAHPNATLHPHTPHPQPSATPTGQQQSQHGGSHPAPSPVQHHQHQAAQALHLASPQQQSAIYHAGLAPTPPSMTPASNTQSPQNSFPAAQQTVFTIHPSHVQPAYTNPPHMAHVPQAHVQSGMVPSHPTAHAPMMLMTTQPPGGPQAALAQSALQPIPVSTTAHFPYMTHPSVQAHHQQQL
T1 sequence (P22626 other isoform, or with tags, fused parts or gaps limits assumed): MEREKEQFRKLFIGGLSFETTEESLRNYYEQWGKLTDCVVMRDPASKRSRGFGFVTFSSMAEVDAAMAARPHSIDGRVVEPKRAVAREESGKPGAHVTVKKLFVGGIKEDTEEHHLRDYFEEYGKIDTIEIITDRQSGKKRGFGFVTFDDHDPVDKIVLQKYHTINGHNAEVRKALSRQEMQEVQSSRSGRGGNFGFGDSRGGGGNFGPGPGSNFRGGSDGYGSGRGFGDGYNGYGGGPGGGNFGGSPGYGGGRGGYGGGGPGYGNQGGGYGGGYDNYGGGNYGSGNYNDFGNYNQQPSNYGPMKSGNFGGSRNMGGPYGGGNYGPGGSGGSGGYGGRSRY

B1: N-terminal FLAG tagged B3GNT2 (enzyme, human, UniProt Q9NY97 1-397, looked up)
chain: MSVGRRRIKLLGILMMANVFIYFIMEVSKSSSQEKNGKGEVIIPKEKFWKISTPPEAYWNREQEKLNRQYNPILSMLTNQTGEAGRLSNISHLNYCEPDLRVTSVVTGFNNLPDRFKDFLLYLRCRNYSLLIDQPDKCAKKPFLLLAIKSLTPHFARRQAIRESWGQESNAGNQTVVRVFLLGQTPPEDNHPDLSDMLKFESEKHQDILMWNYRDTFFNLSLKEVLFLRWVSTSCPDTEFVFKGDDDVFVNTHHILNYLNSLSKTKAKDLFIGDVIHNAGPHRDKKLKYYIPEVVYSGLYPPYAGGGGFLYSGHLALRLYHITDQVHLYPIDDVYTGMCLQKLGLVPEKHKGFRTFDIEEKNKNNICSYVDLMLVHSRKPQEMIDIWSQLQSAHLKC
notes: Overexpressed in cells and pulled down from the lysate with mouse anti-FLAG antibody; also called N-FLAG B3GNT2; N-term FLAG; not shown: N-terminal FLAG tag
For B1, the “co-IP mass spectrometry count” value stood at 7 in assay [1], 4 in assay [2] and 0 in assay [3].

Values taken from patent US20240261333A1 (published 2024).
